Consider one molecule from article PMC5025763, “Bach2–Batf interactions control Th2-type immune response by regulating the IL-4 amplification loop” (Nature Communications, 2016).

The target of the assay is T1, Flag-tagged Bach2 protein (mouse, UniProt P97303 1-839).
T1 construct: Bach2, mouse (murine Bach2 cDNA is named in the methods of the luciferase assay); The species is stated only for the cDNA cloned into pCMV-Myc; also called WT Bach2 protein; BTB and CNC homology 1, basic leucine zipper transcription factor 2; source: cell-free protein synthesis
T1 sequence (P97303 whole entry): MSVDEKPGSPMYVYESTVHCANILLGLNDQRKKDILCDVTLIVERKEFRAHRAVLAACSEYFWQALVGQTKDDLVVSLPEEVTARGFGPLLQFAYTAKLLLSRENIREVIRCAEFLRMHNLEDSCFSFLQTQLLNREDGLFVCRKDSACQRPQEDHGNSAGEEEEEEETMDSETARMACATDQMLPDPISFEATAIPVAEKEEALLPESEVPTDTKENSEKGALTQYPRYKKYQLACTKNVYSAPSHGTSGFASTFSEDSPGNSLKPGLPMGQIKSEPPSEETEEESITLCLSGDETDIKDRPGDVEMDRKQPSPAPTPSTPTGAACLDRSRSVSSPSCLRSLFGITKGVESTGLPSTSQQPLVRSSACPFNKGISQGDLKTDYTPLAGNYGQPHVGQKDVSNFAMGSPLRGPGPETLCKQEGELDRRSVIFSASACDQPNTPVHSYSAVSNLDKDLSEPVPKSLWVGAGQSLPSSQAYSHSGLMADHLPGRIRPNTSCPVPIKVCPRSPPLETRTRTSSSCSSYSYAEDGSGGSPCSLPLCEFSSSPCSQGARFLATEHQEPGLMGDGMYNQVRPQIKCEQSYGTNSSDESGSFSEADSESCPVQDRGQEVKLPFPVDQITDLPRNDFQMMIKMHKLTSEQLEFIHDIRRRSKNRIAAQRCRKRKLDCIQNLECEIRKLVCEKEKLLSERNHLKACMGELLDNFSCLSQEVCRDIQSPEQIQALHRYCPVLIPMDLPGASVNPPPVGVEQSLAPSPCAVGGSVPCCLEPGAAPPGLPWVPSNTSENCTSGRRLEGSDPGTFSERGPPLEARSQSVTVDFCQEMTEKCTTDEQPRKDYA
In words: AlphaScreen or HTRF; Flag-tagged Bach2 mixed with biotinylated transcription factors, 26 °C for 1 h; then protein A-conjugated acceptor beads, streptavidin-coated donor beads and anti-Flag M2 antibody, 26 °C for 1 h; proteins from cell-free synthesis; intensities relative to DHFR. The settings on record: partners not purified.

B1: MafK (natural protein)
chain: not shown
notes: MafK (small Maf protein); Named only in the discussion as measured in the authors' AlphaScreen system
B1: the “fold binding strength against the Batf–Bach2 interaction” value was about 20 fold.
